# Experimental data from patent publication US8821862B2, “Soluble β-N-acetylglucosaminidase based antibiofilm compositions and uses thereof” (Kane Biotech Inc., priority 2002, dated 2014).
# Assays:
# [1] = test system: A. actinomycetemcomitans strain HW1018 (PGA mutant) biofilms; experiment: Biofilm detachment assay (crystal violet); assay type: cell-based; conditions: DispersinB 20 μg/mL; either culture vessel
# Excerpt: (§1) Bacterial strains, media, and growth conditions. A. actinomycetemcomitans strain CU1000 (serotype f) was isolated from a person with localized aggressive periodontitis (Fine et al., Microbiol. 1999, 145: 1335-1347). […] An isogenic PGA mutant strain HW1018 (CU1000 pgaC::IS903φKan) was isolated by randomly mutagenizing CU1000 with transposon IS903φKan and selecting mutants that produced white colonies on Congo red agar, as previously described (Kaplan et al., 2003; Kaplan et al., J. Bacteriol. 2004, 186: 8213-8220). Like other pgaC mutant strains, HW1018 was completely deficient in PGA production, but still formed tenacious biofilms on plastic surfaces (Kaplan et al., 2004). Bacteria were grown in trypticase soy broth supplemented with […] and 8 g/L glucose. Solid medium was supplemented with 15 g/L agar. All cultures were incubated statically at 37° C. in 10% CO2.
# (§2) Biofilm Cultures. Biofilms were grown in 17 mm×100 mm culture tubes (untreated polystyrene; Falcon #352051) or 96-well microtiter plates (tissueculture-treated polystyrene, flat bottoms; Falcon #353072). Culture vessels were inoculated with a 1:10 dilution of inoculum in fresh broth (1 mL for tubes or 200 μL for microplates) and incubated for 24 h.
# (§3) Crystal Violet Assay. Biofilm biomass was visualized and quantitated by means of a crystal violet binding assay as previously described (Kaplan et al., Antimicrob. Agents Chemother. 2004, 48: 2633-2636). Briefly, biofilms were rinsed with water to remove loosely attached cells, stained for 1 min with Gram's crystal violet (200 μL for microplates and 1 mL for tubes), rinsed, dried, and photographed. For quantitation of biofilms grown in microplates, biofilms were de-stained with 200 μL of 33% acetic acid for 5 min, and the absorbance of the crystal violet solution was measured directly in the plate by means of a BioRad Benchmark microtiter plate-reader set at 590 nm. Crystal violet binds to bacterial biofilms, but not to polystyrene (O'Toole & Kolter, Mol. Microbiol. 1998, 28: 449-461).
# (§4) Biofilm Detachment Assay. Biofilms were rinsed with water and treated with 200 μL (for microplates) or 1 mL (for tubes) of DispersinB™ (20 μg/mL in PBS) or SDS (0.001-1% in PBS). After a five- or 30-minute incubation at 37° C., biofilms were rinsed with water and stained with crystal violet as described above. In some assays, biofilms were first treated with DispersinB™ for 5 or 30 min, rinsed, and then treated with SDS. All detachment assays were performed in duplicate wells or tubes. All assays were performed on at least 3 separate occasions, with similar results.
# [2] = test system: A. actinomycetemcomitans strain CU1000 (wild-type) biofilms; experiment: Biofilm detachment assay (crystal violet); assay type: cell-based
# Excerpt: as §1, §2, §3, §4
# [3] = test system: E. coli csrA luxCDABE kan^r biofilm; experiment: Bioluminescent E. coli biofilm on filter disc, luminescence; assay type: cell-based; conditions: for luminescence, Day 1 / luminescence, Day 2 / luminescence, Day 3 / luminescence, Day 4: DispersinB 50 μg/ml
# Excerpt: E. coli TRMG1655 [csrA::kan^r] strain was transformed with transposon, mini-TN5 luxCDABE::kan^r for luciferase expression (Kadurugamuwa et al., 2005, Infect. Immun. 73: 3878-3887), and the operon integrated into the chromosome. Integration was confirmed by amplification of the genomic DNA upstream of the transposon by inverse PCR using Ssp1-digested genomic DNA. Primers UTCF1 (5′-[…]-3′; SEQ ID NO:13) and UTCR (5′-[…]-3′; SEQ ID NO:14) were used to amplify the upstream region using Pfu DNA polymerase (Sigma-Oligosynthesis, St. Louis, Mo.). The lux operon is derived from Photorhabdus luminescence and was obtained from Xenogen Inc. (Alameda, Calif.). These bioluminescent bacteria allow real-time monitoring by noninvasive imaging of biofilms, either in vitro or in vivo.
# A cell suspension of 10^6 E. coli csrA luxCDABE kan^r was used to inoculate a filter disc (Millipore Corporation, Billerica, Mass.). The E. coli biofilm was maintained in minimal media (M9) supplemented with 50 μg/ml kanamycin and 100 μg/ml ampicillin. The media were changed every day by transferring the disc to new plate. After 3 days, chemoluminescence activity of the established biofilm was measured using a Typhoon™ imaging scanner (General Electric Healthcare Life Sciences) and ImageQuant TL software (Amersham Biosciences, Sunnyvale, Calif.). The measure luminescence directly correlates with the metabolic activity of the biofilm.
# Luminescence was measured at day 0 and was used as the control. Following the measurement of luminescence at day 0, each disc was treated with one of the following—media alone (control) and media containing:
# Luminescence was measured every 24 hours followed by replacing the media. Thus, every 24 h following the measurement of the luminescence, 10 μl each of the different solutions was applied to the plate and the biofilm disc was placed on top of the drop everyday. The quantitative analysis of the biofilm luminescence from each day was used to compare the biofilm activity after treatment with the different treatments.
# The experiments were repeated using the same E. coli strain csrA luxCDABE kan^r and protocols. Biofilm discs were pulsed with media alone (control) and media containing: […]
# [4] = test system: E. coli; experiment: In vitro microplate biofilm formation assay (crystal violet); assay type: cell-based, Escherichia coli; conditions: DispersinB at different concentrations, CFA medium, 26° C., 24 hours
# Protocol: An in vitro microplate assay was performed to determine the effect of DispersinB™ on the growth and biofilm formation of E. coli, S. epidermidis, and S. aureus. E. coli biofilm was grown in colony forming antigen (CFA) medium. […] S. epidermidis and S. aureus biofilm was grown in tryptic soy broth (TSB). Bacteria were separately grown in 96-well microtiterplate in the absence and presence of DispersinB™ at different concentrations. The E. coli plate was incubated at 26° C. for 24 hours. The S. epidermidis and S. aureus biofilm plates were incubated at 37° C. for 24 hours. Growth of planktonic cells based on the absorbance at 600 nm was determined using Labsystems Multiskan Ascent microplate reader. Biofilm was measured by discarding the medium; rinsing the wells with water (three times), and staining bound cells with crystal violet. The dye was solubilized with 33% acetic acid, and absorbance at 630 nm was determined using a microtiter plate reader.
# [5] = Table 3, phage 10^8, treatment renewed every 24 h
# [6] = Table 4, repeated experiment, BisEDT 50 μg/ml, phage cocktail 10^8
molecule,measurement,setting,value
"DispersinB™: 381 amino acid soluble β-N-acetylglucosaminidase encoded by dspB of A. actinomycetemcomitans; mature polypeptide SEQ ID NO:11 (protein, Actinobacillus actinomycetemcomitans) NCCVKGNSIYPQKTSTKQTGLMLDIARHFYSPEVIKSFIDTISLSGGNFLHLHFSDHENYAIESHLLNQRAENAVQGKDGIYINPYTGKPFLSYRQLDDIKAYAKAKGIELIPELDSPNHMTAIFKLVQKDRGVKYLQGLKSRQVDDEIDITNADSITFMQSLMSEVIDIFGDTSQHFHIGGDEFGYSVESNHEFITYANKLSYFLEKKGLKTRMWNDGLIKNTFEQINPNIEITYWSYDGDTQDKNEAAERRDMRVSLPELLAKGFTVLNYNSYYLYIVPKASPTFSQDAAFAAKDVIKNWDLGVWDGRNTKNRVQNTHEIAGAALSIWGEDAKALKDETIQKNTKSLLEAVIHKTNGDE",attachment of PGA mutant biofilms,[1],no effect
same,detachment of wild-type biofilms from microplate wells,"[2]; DispersinB 20 μg/mL in PBS, 5 min, 96-well microplate wells",not from microplate wells
same,detachment of wild-type biofilms from tubes,"[2]; DispersinB 20 μg/mL in PBS, 5 min, polystyrene tubes",rapid detachment
same,single cells in suspension after disaggregation of biofilms,"[2]; biofilms grown in tubes, DispersinB, microscopic analyses (data not shown)",> 99%
same,"luminescence, Day 0","[3]; Table 3, Day 0, measured before treatment (baseline)",948.72 RLU
same,"luminescence, Day 1",[3]; [5],1167.19 RLU
same,"luminescence, Day 2",[3]; [5],1297.42 RLU
same,"luminescence, Day 3",[3]; [5],1487.76 RLU
same,"luminescence, Day 4",[3]; [5],1550.01 RLU
same,"luminescence, Day 1",[3]; [6],2137.73 RLU
same,"luminescence, Day 2",[3]; [6],1911.9 RLU
same,"luminescence, Day 3",[3]; [6],2982.02 RLU
same,"luminescence, Day 4",[3]; [6],2032.06 RLU
same,"luminescence, Day 0","[3]; Table 4, repeated experiment, Day 0, before treatment (baseline)",1815.26 RLU
same,course of biofilm luminescence (RLU) / metabolic activity over time,"[3]; over 4 days, result in words",growth similar to the control
same,biofilm formation,[4],appreciable effect
